Experimental data from patent US20010010923A1, “MODIFIED CARBOXYPEPTIDASE” (priority 1997, published 2001).
“Also recorded” adds a separate entry of the source. Marks after values point to notes of the source that are not given here.

B1: T60Y: carboxypeptidase Y S1' mutant, substitution T60Y (protein, UniProt P00729 112-532, looked up, variant T60Y)
Carboxypeptidase Y: KIKDPKILGIDPNVTQYTGYLDVEDEDKHFFFWTFESRNDPAKDPVILWLNGGPGCSSLYGLFFELGPSSIGPDLKPIGNPYSWNSNATVIFLDQPVNVGFSYSGSSGVSNTVAAGKDVYNFLELFFDQFPEYVNKGQDFHIAGESYAGHYIPVFASEILSHKDRNFNLTSVLIGNGLTDPLTQYNYYEPMACGEGGEPSVLPSEECSAMEDSLERCLGLIESCYDSQSVWSCVPATIYCNNAQLAPYQRTGRNVYDIRKDCEGGNLCYPTLQDIDDYLNQDYVKEAVGAEVDHYESCNFDINRNFLFAGDWMKPYHTAVTDLLNQDLPILVYAGDKDFICNWLGNKAWTDVLPWKYDEEFASQKVRNWTASITDEVAGEVKSYKHFTYLRVFNGGHMVPFDVPENALSMVNEWIHGGFSL
B2: T60D: carboxypeptidase Y S1' mutant, substitution T60D (protein, UniProt P00729 112-532, looked up, variant T60D)
Carboxypeptidase Y: KIKDPKILGIDPNVTQYTGYLDVEDEDKHFFFWTFESRNDPAKDPVILWLNGGPGCSSLDGLFFELGPSSIGPDLKPIGNPYSWNSNATVIFLDQPVNVGFSYSGSSGVSNTVAAGKDVYNFLELFFDQFPEYVNKGQDFHIAGESYAGHYIPVFASEILSHKDRNFNLTSVLIGNGLTDPLTQYNYYEPMACGEGGEPSVLPSEECSAMEDSLERCLGLIESCYDSQSVWSCVPATIYCNNAQLAPYQRTGRNVYDIRKDCEGGNLCYPTLQDIDDYLNQDYVKEAVGAEVDHYESCNFDINRNFLFAGDWMKPYHTAVTDLLNQDLPILVYAGDKDFICNWLGNKAWTDVLPWKYDEEFASQKVRNWTASITDEVAGEVKSYKHFTYLRVFNGGHMVPFDVPENALSMVNEWIHGGFSL
B3: M398G: carboxypeptidase Y S1' mutant, substitution M398G (protein, UniProt P00729 112-532, looked up, variant M398G)
Carboxypeptidase Y: KIKDPKILGIDPNVTQYTGYLDVEDEDKHFFFWTFESRNDPAKDPVILWLNGGPGCSSLTGLFFELGPSSIGPDLKPIGNPYSWNSNATVIFLDQPVNVGFSYSGSSGVSNTVAAGKDVYNFLELFFDQFPEYVNKGQDFHIAGESYAGHYIPVFASEILSHKDRNFNLTSVLIGNGLTDPLTQYNYYEPMACGEGGEPSVLPSEECSAMEDSLERCLGLIESCYDSQSVWSCVPATIYCNNAQLAPYQRTGRNVYDIRKDCEGGNLCYPTLQDIDDYLNQDYVKEAVGAEVDHYESCNFDINRNFLFAGDWMKPYHTAVTDLLNQDLPILVYAGDKDFICNWLGNKAWTDVLPWKYDEEFASQKVRNWTASITDEVAGEVKSYKHFTYLRVFNGGHGVPFDVPENALSMVNEWIHGGFSL
B4: M398A: carboxypeptidase Y S1' mutant, substitution M398A (protein, UniProt P00729 112-532, looked up, variant M398A)
Carboxypeptidase Y: KIKDPKILGIDPNVTQYTGYLDVEDEDKHFFFWTFESRNDPAKDPVILWLNGGPGCSSLTGLFFELGPSSIGPDLKPIGNPYSWNSNATVIFLDQPVNVGFSYSGSSGVSNTVAAGKDVYNFLELFFDQFPEYVNKGQDFHIAGESYAGHYIPVFASEILSHKDRNFNLTSVLIGNGLTDPLTQYNYYEPMACGEGGEPSVLPSEECSAMEDSLERCLGLIESCYDSQSVWSCVPATIYCNNAQLAPYQRTGRNVYDIRKDCEGGNLCYPTLQDIDDYLNQDYVKEAVGAEVDHYESCNFDINRNFLFAGDWMKPYHTAVTDLLNQDLPILVYAGDKDFICNWLGNKAWTDVLPWKYDEEFASQKVRNWTASITDEVAGEVKSYKHFTYLRVFNGGHAVPFDVPENALSMVNEWIHGGFSL
B5: M398V: carboxypeptidase Y S1' mutant, substitution M398V (protein, UniProt P00729 112-532, looked up, variant M398V)
Carboxypeptidase Y: KIKDPKILGIDPNVTQYTGYLDVEDEDKHFFFWTFESRNDPAKDPVILWLNGGPGCSSLTGLFFELGPSSIGPDLKPIGNPYSWNSNATVIFLDQPVNVGFSYSGSSGVSNTVAAGKDVYNFLELFFDQFPEYVNKGQDFHIAGESYAGHYIPVFASEILSHKDRNFNLTSVLIGNGLTDPLTQYNYYEPMACGEGGEPSVLPSEECSAMEDSLERCLGLIESCYDSQSVWSCVPATIYCNNAQLAPYQRTGRNVYDIRKDCEGGNLCYPTLQDIDDYLNQDYVKEAVGAEVDHYESCNFDINRNFLFAGDWMKPYHTAVTDLLNQDLPILVYAGDKDFICNWLGNKAWTDVLPWKYDEEFASQKVRNWTASITDEVAGEVKSYKHFTYLRVFNGGHVVPFDVPENALSMVNEWIHGGFSL
B6: M398I: carboxypeptidase Y S1' mutant, substitution M398I (protein, UniProt P00729 112-532, looked up, variant M398I)
Carboxypeptidase Y: KIKDPKILGIDPNVTQYTGYLDVEDEDKHFFFWTFESRNDPAKDPVILWLNGGPGCSSLTGLFFELGPSSIGPDLKPIGNPYSWNSNATVIFLDQPVNVGFSYSGSSGVSNTVAAGKDVYNFLELFFDQFPEYVNKGQDFHIAGESYAGHYIPVFASEILSHKDRNFNLTSVLIGNGLTDPLTQYNYYEPMACGEGGEPSVLPSEECSAMEDSLERCLGLIESCYDSQSVWSCVPATIYCNNAQLAPYQRTGRNVYDIRKDCEGGNLCYPTLQDIDDYLNQDYVKEAVGAEVDHYESCNFDINRNFLFAGDWMKPYHTAVTDLLNQDLPILVYAGDKDFICNWLGNKAWTDVLPWKYDEEFASQKVRNWTASITDEVAGEVKSYKHFTYLRVFNGGHIVPFDVPENALSMVNEWIHGGFSL

Assays:
[1] = Transpeptidation of FA-Ala-Xaa-OH with H-Gly-NH2, Table 2; type: biochemical; settings: for Fraction of aminolysis (fa), P1' Ala: FA-Ala-Ala-OH 0.2 mM; for Fraction of aminolysis (fa), P1' Ala / Fraction of aminolysis (fa), P1' Leu / Fraction of aminolysis (fa), P1' Met / Fraction of aminolysis (fa), P1' Phe / Fraction of aminolysis (fa), P1' Val: 1.9 M H-Gly-NH2, pH 7.5, room temperature; for Fraction of aminolysis (fa), P1' Leu: FA-Ala-Leu-OH 0.2 mM; for Fraction of aminolysis (fa), P1' Met: FA-Ala-Met-OH 0.2 mM; for Fraction of aminolysis (fa), P1' Phe: FA-Ala-Phe-OH 0.2 mM; for Fraction of aminolysis (fa), P1' Val: FA-Ala-Val-OH 0.2 mM; for fraction of aminolysis compared to wild type, in words: larger, hydrophobic leaving group such as leucine
Method: (§1) Transamidation reactions were carried out generally as described in PCT Application WO 95/20039. In general, the method included dissolving the nucleophile (H-Leu-NH2, unless otherwise indicated) in 50 mM HEPES, 5 mM EDTA and adjusting the pH to 7.5, 5 μl of peptide substrate (8 mM Bz-G-A-R-A-R-A-OH, unless otherwise indicated, in methanol) was added to 190 μl nucleophile solution followed by 5 μl enzyme, resulting in a substrate concentration of 0.2 mM.
(§2) During the reaction, 20 μl aliquots were removed from the reaction mixture and added to 50 μl 1% trifluoroacetic acid to quench the reaction. The reactant composition was determined by HPLC using a Waters HPLC equipped with a C-18 Waters Novapac 4μ reverse phase column and various gradients of acetonitrile in 0.1% trifluoroacetic acid. The separation was monitored at 254 nm allowing the direct quantification of the products from the integrated peak areas. The composition of the reaction mixture was determined at least twvice during the reaction, the first when 20-50% (preferably 35%) of the substrate had been consumed in the reaction and the second time when 50-90% (preferably 80%) of the peptide substrate had been consumed.
(§3) The fraction of aminolysis (fa) was expressed as the ratio between the formed aminolysis product and the sum of all products formed. Unconsumed substrate was disregarded in the calculations.
Site specific mutagenesis was performed as described for Example 1 to produce the S1 mutants used below.
Transamidation reactions were performed as described for Example 1.

[2] = Transpeptidation of FA-Ala-OBzl with H-Leu-NH2, Table 3; type: biochemical; settings: FA-Ala-OBzl 0.2 mM, pH 7.5; for fa: H-Leu-NH2; for KN(app): nucleophile H-Leu-NH2 concentration at which fa is half of maximum
Method: as §1, §2, §3
Site specific mutagenesis was performed as described in Example 1 to produce the specific substitution mutants described below. Transamidation reactions were performed as described for Example 1.
In table 3, below, KN(app) represents the nucleophile concentration at which fa is half of the maximum value (a measure for the dissociation constant of the nucleophile). famax is the highest possible fa obtained at saturation of the enzyme with the nucleophile.
KN(app) indicates the concentration at which famax/2 is reached and thus describes the apparent binding constant of the nucleophile. Because the competing hydrolysis reaction is thought to occur while the leaving group remains attached to the to the acyl-enzyme intermediate, a low KN(app) is preferred.

Molecule	Fraction of aminolysis (fa), P1' Ala [1]	Fraction of aminolysis (fa), P1' Leu [1]	Fraction of aminolysis (fa), P1' Met [1]	Fraction of aminolysis (fa), P1' Phe [1]	Fraction of aminolysis (fa), P1' Val [1]	fraction of aminolysis compared to wild type, in words [1]	fa [2]	KN(app) [2]	fraction of aminolysis compared to wild type, in words ([1]; listed as M3981)
B1	0.90	0.66	0.58	0.51	0.43	improvement in fraction of aminolysis obtained; also recorded: most dramatic improvement; also recorded: most effective at increasing the fraction of aminolysis	0.95^a	–	–
B2	0.87	0.25	0.15	0.15	0.53	improvement in fraction of aminolysis obtained	0.94^a	1.5^c mM	–
B3	0.93	0.59	0.83	0.66	0.42	improvement in fraction of aminolysis obtained	0.95^a	1.6^a mM	–
B4	0.93	0.84	0.89	0.84	0.65	improvement in fraction of aminolysis obtained; also recorded: enhanced transpeptidation	0.93^a	0.83^a mM	–
B5	0.93	0.91	0.83	0.86	0.81	improvement in fraction of aminolysis obtained; also recorded: most dramatic improvement; also recorded: enhanced transpeptidation	0.87^a	1.43^b mM	–
B6	0.93	0.91	0.83	0.75	0.87	improvement in fraction of aminolysis obtained; also recorded: most dramatic improvement	0.94^a	0.91^b mM	enhanced transpeptidation
